The source of these data is article PMC5925814, “Impact of altered phosphorylation on loss of function of juvenile Parkinsonism–associated genetic variants of the E3 ligase parkin” (The Journal of Biological Chemistry, 2018).

For assay [1], the target named is T1, GST-tagged Pediculus humanus PINK1 (residues 128–575) (Pediculus humanus) (UniProt E0W1I1).
T1 sequence: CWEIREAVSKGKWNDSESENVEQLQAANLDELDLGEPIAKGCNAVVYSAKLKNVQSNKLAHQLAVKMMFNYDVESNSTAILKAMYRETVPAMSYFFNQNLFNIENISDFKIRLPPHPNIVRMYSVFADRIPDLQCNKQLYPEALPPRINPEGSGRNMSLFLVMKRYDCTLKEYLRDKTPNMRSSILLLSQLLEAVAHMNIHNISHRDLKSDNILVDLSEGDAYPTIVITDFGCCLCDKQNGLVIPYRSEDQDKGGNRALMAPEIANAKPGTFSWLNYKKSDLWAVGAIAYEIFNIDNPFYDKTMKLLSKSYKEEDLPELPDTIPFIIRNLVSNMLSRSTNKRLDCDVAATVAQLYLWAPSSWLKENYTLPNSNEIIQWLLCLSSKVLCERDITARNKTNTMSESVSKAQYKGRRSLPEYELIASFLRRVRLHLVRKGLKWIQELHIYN

Assay [2] deals with T1, GST-tagged Pediculus humanus PINK1 (residues 128–575) (Pediculus humanus). This is another data set of the same source.
Assay [3] concerns the target T2, C-terminal portion of ataxin-3 (residues 194–361) containing three UIM regions (UniProt P54252 194-361).
T2 construct: Unlabelled in the NMR titrations; also called ataxin^194–361; tandem UIM region from ataxin-3; source: E. coli BL21(DE3), purified (Ni-NTA, TEV cleavage, second Ni-NTA)
Kind of assay: NMR titration; unlabelled ataxin^194–361 titrated into 15N-labelled Ubl variants, 1H-15N HSQC chemical shift changes, global fit for a single Kd (apparent); 150 uM Ubl domain (75 uM pUbl^P37L); 25 mM HEPES, 100 mM NaCl, 0.5 mM TCEP, pH 7.0, 25 °C. As to conditions: both partners purified.

T2 sequence (P54252 194-361): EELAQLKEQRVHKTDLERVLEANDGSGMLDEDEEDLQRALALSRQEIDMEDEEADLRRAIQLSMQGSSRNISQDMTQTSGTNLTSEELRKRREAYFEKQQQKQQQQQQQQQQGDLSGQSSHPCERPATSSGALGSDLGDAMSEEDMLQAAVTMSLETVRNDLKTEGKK

The molecule “full-length parkin (1–465) G12R (from UniProt O60260 1-465) (enzyme)” came in with a rate of Ser-65 phosphorylation by PINK1 (time course, pSer-65 antibody Western blot), against WT full-length parkin in assay [1] of 40%.
In assay [2], “parkin Ubl domain (1–76) I44A (from UniProt O60260 1-76) (domain or fragment)” gave a phosphorylation by PINK1 against the WT Ubl domain (data not shown) of 20 fold.

B1: parkin Ubl domain (1–76), wild type (domain or fragment, human, UniProt O60260 1-76, looked up)
chain: MIVFVRFNSSHGFPVEVDSDTSIFQLKEVVAKRQGVPADQLRVIFAGKELRNDWTVQNCDLDQQSIVHIVQRPWRK
notes: parkin, human, ubiquitin-like (Ubl) domain, residues 1-76; 15N-labelled for the NMR titrations; also called WT Ubl domain; source: E. coli BL21(DE3), purified (Ni-NTA, Ulp1 cleavage, Superdex75)
B1: the Kd in assay [3] was 187 ± 19 µM.

B2: parkin Ubl domain (1–76) S65E, phosphomimetic (domain or fragment, human, UniProt O60260 1-76, looked up)
chain: MIVFVRFNSSHGFPVEVDSDTSIFQLKEVVAKRQGVPADQLRVIFAGKELRNDWTVQNCDLDQQEIVHIVQRPWRK
notes: parkin, human, ubiquitin-like (Ubl) domain, residues 1-76, S65E; 15N-labelled for the NMR titrations; also called Ubl^S65E; source: E. coli BL21(DE3), purified (Ni-NTA, Ulp1 cleavage, Superdex75)
For B2, the Kd in assay [3] is 227 ± 26 µM.

B3: parkin Ubl domain (1–76) P37L (domain or fragment, human, UniProt O60260 1-76, looked up)
chain: MIVFVRFNSSHGFPVEVDSDTSIFQLKEVVAKRQGVLADQLRVIFAGKELRNDWTVQNCDLDQQSIVHIVQRPWRK
notes: parkin, human, ubiquitin-like (Ubl) domain, residues 1-76, ARJP substitution P37L; 15N-labelled for the NMR titrations; Disease-associated (ARJP) substitution; also called Ubl^P37L; source: E. coli BL21(DE3), purified (Ni-NTA, Ulp1 cleavage, Superdex75)
In the case of B3, in assay [3], the Kd was found to be 61 ± 2 µM.

B4: parkin Ser-65–phosphorylated Ubl domain (1–76) (domain or fragment, human, UniProt O60260 1-76, looked up)
chain: MIVFVRFNSSHGFPVEVDSDTSIFQLKEVVAKRQGVPADQLRVIFAGKELRNDWTVQNCDLDQQSIVHIVQRPWRK
modifications: phosphoserine at 65
notes: parkin, human, ubiquitin-like (Ubl) domain, residues 1-76, phosphorylated at Ser-65; 15N-labelled for the NMR titrations; the preparative phosphorylation is not described; also called pUbl; pSer-65 Ubl; source: E. coli BL21(DE3), purified (Ni-NTA, Ulp1 cleavage, Superdex75); phosphorylated at Ser-65
For the molecule B4, the Kd in assay [3] came out at 652 ± 175 µM.

B5: parkin Ser-65–phosphorylated Ubl domain (1–76) P37L (domain or fragment, human, UniProt O60260 1-76, looked up)
chain: MIVFVRFNSSHGFPVEVDSDTSIFQLKEVVAKRQGVLADQLRVIFAGKELRNDWTVQNCDLDQQSIVHIVQRPWRK
modifications: phosphoserine at 65
notes: parkin, human, ubiquitin-like (Ubl) domain, residues 1-76, ARJP substitution P37L, phosphorylated at Ser-65; 15N-labelled; used at 75 uM in the NMR titration; also called pUbl^P37L; pP37L; source: E. coli BL21(DE3), purified (Ni-NTA, Ulp1 cleavage, Superdex75); phosphorylated at Ser-65
Regarding B5, in assay [3], the Kd was found to be 231 ± 72 µM.
